Target: LH1 αβ-polypeptide pair of Rhodospirillum rubrum (Rhodospirillum rubrum) (UniProt P02947)
Assay: cryo-EM structure

stoichiometry N: 16
Substance: LH1 αβ-polypeptide pair of Rhodospirillum rubrum (from UniProt P02947 1-52; P02950 1-49) (complex)
